This note sets out measurements from paper PMC10287910.

A word on the stoichiometry N: it is a count of units in the complex or per binding partner. By Kd is commonly meant the concentration at which binding is half-saturated. Low values mean higher affinity, high ones lower affinity.

Data set [1] deals with ParA2 ATPase (wild type), Vibrio cholerae chromosome 2 (Vibrio cholerae).
For data set [2] the target is unchanged. Nature of the data set: SEC-MALS; 40 uM ParA2 alone or pre-incubated with ADP or ATP; Superdex 200 10/300 GL; 50 mM Tris-HCl pH 7.5, 100 mM NaCl, 5.0 mM MgCl2, 0.1 mM EDTA, 1.0 mM DTT, 1.0 mM NaN3; monomer to dimer.
Data set [3] has as its system ParA2-GFP (Vibrio cholerae). Nature of the data set: EMSA. (In EMSA bound probe runs differently from free probe, usually more slowly.)
The test system of data set [4] is ParA2 K124E (Vibrio cholerae). Kind of data set: EMSA.
Data set [5] relates to ParA2 K124R (Vibrio cholerae). Kind of data set: EMSA.
A further data set has as its system ParA2 (Vibrio cholerae). Kind of data set: EMSA.
For data set [6], the system named is ParA2 K124Q (Vibrio cholerae). Kind of data set: EMSA.

In the case of “ParB2, Vibrio cholerae chromosome 2 (natural protein)”, in data set [1], the pre-steady state ATP hydrolysis rate of ParA2 (1.5 uM), stimulation by ParB2 at equimolar concentration was found to be 3 fold; the pre-steady state ATP hydrolysis rate of ParA2 (1.5 uM), stimulation in the presence of both DNA and ParB2 came to 8 fold.
As for “ParA2 ATPase (wild type), Vibrio cholerae chromosome 2 (enzyme)”, the stoichiometry N in data set [2] turned out to be 2.
For the substance “CGAGGTCGACGGTATCGATAAGCTTGATATCGAATTCCTGCAGCCCGGGGGATCCACTAGTTCTAGAGC (double strand) [Cy3-69 bp nsDNA]”, the Kd came out at 40 nM in data set [3]; 452 nM in data set [4]; 47.1 nM in data set [5]; 1000 nM in the data set on ParA2 (Vibrio cholerae); 138 nM in data set [6].
